Test results: US20150232562A1 (Ablynx, published 2015)

Each binder was assayed against T1, recombinant human ErbB2/Fc chimera (human, UniProt P04626 23-652) (assay: ELISA, coated ErbB2/Fc).
T1 construct: bought from R&D Systems; also called rhErbB2-Fc; rhErb2-Fc; Fc part of the bought chimera not given; not described

binding result | Binder
binds | 118N121_A7_1_OK/1-122 (VHH, C-term myc-His6 tag) VHH: EVQLVESGGGLVQPGGSLRLSCAASGNIKSIDVMGWHRQAPGKERELVSDISFGGNTNYANSVKGRFTISRDNAKNTVYLQMNSLKPEDTAVYYCYADILYKTDIYYRNDFWGQGTQVTVSS
binds | 12E42/1-118 (VHH, C-term myc-His6 tag) VHH: EVQLVESGGGLVQPGGSLRLSCAHSGRAFSLRTMGWYRQAPGNQRELVALISAGDSTYYPDSVKGRFTVSRDNAKNTVYLQMNSLKPEDTAVYYCNAKAVTSRDHEYWGQGTQVTVSS
binds | 13F81A/1-128 (VHH, C-term myc-His6 tag) VHH: EVQLVESGGGLVQAGGSLRLSCAASGRTFSRYAMGWFRQAPGKEREFVAAISWTGGSSYYGDSVKGRSTISRENAENTVYLQMNSLKPEDTAVYYCAANSDEFYSGTLKLQSRMVEYWGQGTQVTVSS
binds | 118N121_B3_1_OK/1-123 (VHH, C-term myc-His6 tag) VHH: EVQLVESGGGLVQPGGSLRLSCAASGRTFSDLALGWFRRAPGKEREHVAAISSSGVTTIYADSVRGRFTISRDEAKNTVYLEMNSLKTDDTAVYYCAARLTMATPNQSQYYYWGQGTQVTVSS
binds | 13F21/1-123 (VHH, C-term myc-His6 tag) VHH: EVQLVESGGGLVQSGGSLRLSCVASGTIVSINATSWYRQAPGNQRELVATIIGDGRTHYADSVKDRFTISRDAAANLVYLQMNSLKPSDTAIYSCNANGIESYGWGNRHFNYWTVGTQVTVSS
binds | 118N121_A5_2_OK/1-114 (VHH, C-term myc-His6 tag) VHH: EVQLVESGGGSVQPGGSLRLSCVASGSISSTNAMGWHRQVSGKERELVAIVTDGFTNYADFAKGRFTISRDNAKTTVYLQMNSLQPEDTARYYCRYSGIGTDNWGQGIEVTVSS
binds | 118N121_A9_2_OK/1-114 (VHH, C-term myc-His6 tag) VHH: EVQLVESGGGSVQPGGSLRLSCVASGSISSVNAMGWHRQVPGKQRELVAIVTDGFTNYADFAKGRFTISRDNAKTTVYLQMNSLQPEDTARYYCRYSGIGTDNWGQGIEVTVSS
binds | 118N121_A2_2_OK/1-124 (VHH, C-term myc-His6 tag) VHH: KVQLVESGGGLVQAGGSLRLSCAASGRTFSNYSVGWFRQAPGKEREFVAALSKDGARTYYAASVKGRFTIYRDNAKNVVYLQMSVLNGEDTAVYYCAADHFTFMSNLPSEYDYWGQGTQVTVSS
binds | 118N121_A11_1_OK/1-120 (VHH, C-term myc-His6 tag) VHH: EVQLVESGGGLVQPGGSLRLSCAASGFPFGMYGMRWVRQAPGKGPERVSSINSDGDTTYYADSVKGRFTISRDNDENMLYLQMNSLKPEDTAVYYCATGFSDRSFAVTHKGQGTQVTVSS
binds | 13G11/1-122 (VHH, C-term myc-His6 tag) VHH: EVQLVESGGGLVQAGGSLRLSCAASGRTFISNYAMGWFRQAPGKEREFVATINWSGSHSDYADSVKGRFTISRDNAKNTVYLQMNNLKSEDTAVYYCAPGWGTAPLSTSVYWGQGTQVTVSS
binds | 14H101/1-128 (VHH, C-term myc-His6 tag) VHH: EVQLVESGGGLVQAGGSLRLSCAASGRTFISSPMGWFRQAPGKEREVVAATTRSGGLPYYSDSVKGRFTISRDNAKNTVDLQMSSLKPEDTAAYYCAADQKYGMSYSRLWLVSEYEYWGQGTQVTVSS
binds | 11B102/1-118 (VHH, C-term myc-His6 tag) VHH: EVQLVESGGGLVQAGGSLRLSCAASGGIFSSHAISWFRQAPGKAREFVAAINWSGSHRDYADSAKGRFTISRDNAKKTAYLQMNSLRPEDTAVYYCVGGWKTDEYVKWGQGTQVTVSS
binds | 12E21/1-115 (VHH, C-term myc-His6 tag) VHH: EVQLVESGGGLVQPGGSLRLSCAASGSIDSIHVVGWYRKAPGKQREVVAYIGTAGATHYADSVKGRFTISRDNAENLVYLQMNNLKPEDTAVYYCSAGWGDSAYWGQGTQVTVSS
binds | 118N121_B2_1_OK/1-130 (VHH, C-term myc-His6 tag) VHH: EVQLVESGGGLVQAGGSLRLSCAASGFSLDDRAIAWFRQAPGKAREGVSCITPHHGGIIFTRESVKGRFATSSDSAKNTVYLQMHSLKPEDTAVYYCATLRTDYSINWANCQRDSLYGYWGQGTQVTVSS
binds | 21A41/1-120 (VHH, C-term myc-His6 tag) VHH: EVQLVESGGGLVQAGGSLRLSCAASGRIFSNYAWSWFRQAPGKERGFVAAINWSGGYTDYADSVKGRFTISRDNTKNTVYLQMNSLKPEDTAVYYCRPGWVTPSYEYGNWGQGTQVTVSS
binds | 118N121_A10_1_OK/1-131 (VHH, C-term myc-His6 tag) VHH: EVQLVESGGGLVQAGGSLRLSCAASGFSFADYAIGWFRQAPGKEREGVSCIANSEGTKYYADSAQGRLPISSDNAKKTVYLQMDSLKPEDTAVYYCAALPYTICPVVVKKGAVYYGVDDYWGKGTQVTVSS
binds | 11B61/1-120 (VHH, C-term myc-His6 tag) VHH: EVQLVESGGGLVQAGGSLRLSCAASGRTSSGYGMGWFRQAPGKEREFVAAVGWYGSTYFADSVKGRFTIYRDNAQNTMYLQMNSLKPEDTAVYYCAASSSLATISQPSSWGQGTQVTVSS
binds | 118N121_B8_1_OK/1-135 (VHH, C-term myc-His6 tag) VHH: EVQLVESGGGLVQDGGSLRLSCAASGQLANFASYAMGWFRQAPGKAREFVAAIRGSGGSTYIADPARSTYYADFVKGRFTISRDNAKNTVYLQMNSLKPEDTAVYYCACETFNSISNLPGEYDYWGQGTQVTVSS
binds | 118N121_B7_4_OK/1-124 (VHH, C-term myc-His6 tag) VHH: EVQLVESGGGLEQAGGSLRLSCAASGLTFRSAAMGWFRQGPGKEREFVAAISRDGAATYYTDSVKGRFTISRDNAKNTVFLQMNSLKPEDTAIYYCAADFRLARLRVADDYDYWGQGTQVTVSS
binds | 118N121_A8_2_OK/1-124 (VHH, C-term myc-His6 tag) VHH: EVQLVESGGGLVQAGGSLTLSCVISGLTLESHAMGWFRQAPGEEREFVATIRWSGSATFYSDSVKGRFTISRDNAKNTVYLQMNSLKPEDTAVYYCAARKIYRSLSYYGDYDSWGQGTQVTVSS
binds | 118N121_A6_2_OK/1-123 (VHH, C-term myc-His6 tag) VHH: EVQLVESGGGLVQAGGSLRLSCVASGRTFSGYSVGWFRQSPGKEREFVGGINWSGRTYYVDSVKGRFTFSRDNAKNTVYLQMNSLKPEDTAIYLCAVDRFNTIANLPGEYDYWGQGTQVTVSS
binds | 12E33/1-119 (VHH, C-term myc-His6 tag) VHH: EVQLVESGGGMVQAGGSLRLSCAASGLTLSNYGMGWFRQAPGKEREFVSSINWSGTHTYDADFVKGRFIISRDNAKNTVYLQINSLKPEDTAVYYCAAGGWGTGRYNYWGQGTQVTVSS
binds | 118N121_B7_1_OK/1-119 (VHH, C-term myc-His6 tag) VHH: EMQLVESGGGLVQPGGSLRLSCAASGNIPPINAMAWYRQAPGNERELVAAVTSGGGTNYATSVKGRFIISRDDSKNTVDLQMNSLKPEDTAVYYCNLGGWTRTHPFDYWGQGTQVTVSS
